Sequences and labels used below:
B1: TPR t1 (parent)
chain: GACCAAUCUGCCCUCAGAGCUCGAGAACAUCUUCGGAUGCAGAGGAGGCAGGCUUCGGUGGCGCGAUAGCGCCAACGUCCUCAACCUCCAAUGCAUCCCACCACAUGAUGAUGCCUGAAGAGCCUUGGUUUUUUG

Variants of B1 are the subject of the series. In words: polymerase ribozyme fitness, log enrichment relative to wild type (log ratio); higher = more active; in vitro selection for triplet polymerase activity. In short, it runs like this: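 After PCR construction and transcription, each subunit's mutant library from a heterodimeric triplet polymerase ribozyme was annealed with a biotinylated primer, the partner subunit and triplets. Incubation was frozen, at −7 °C, and extended constructs were gel-excised, bound to streptavidin beads and amplified by RT-PCR, in one selection round done in triplicate. Fitness is the logarithm of a genotype's enrichment divided by that of the wild type, from inverse-variance-weighted replicate averages of Illumina-sequenced inputs and outputs. The base of the logarithm is 2, and genotypes needed ≥10 input reads and ≥1 read per output.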
Regarding C22G U78A U87A C88A C102A, the “polymerase ribozyme fitness (log ratio)” value was -5.54.
With A24C A43U C49A C79A C98U C114U the figure was -7.85.
With G23U G63C the figure was -6.19.
With A24C U32C C73A U96G A111U the figure was -7.08.
As for A24U G45A G60A C115U, the “polymerase ribozyme fitness (log ratio)” value was -6.73.
In the case of C22U G51A, the “polymerase ribozyme fitness (log ratio)” value is -4.81.
With A26G G120U the figure was -1.88.
Regarding C22U C56G G60A, the “polymerase ribozyme fitness (log ratio)” value was -5.5.
With U21G A84U C114A the figure was -1.88.
Regarding G23C C70G, the “polymerase ribozyme fitness (log ratio)” value is -7.47.
With G25U A37U the figure was -5.61; with C22G G52C C79U, -4.14; with C22A A27C C56U C114A U125A, -4.58.
On to C22A C76U, for which the “polymerase ribozyme fitness (log ratio)” value was -4.72.
Then G23C A26G C124U, with -5.18; and A26U C40A, with -4.26; and A26U C40U, with -4.02.
For the variant G25A C64U, the “polymerase ribozyme fitness (log ratio)” value was -4.8.
With C22U C56G U78A the figure was -3.95.
Take G25C G35A G44C C114G: the “polymerase ribozyme fitness (log ratio)” value is -5.95.
Take C22U G52A A84C C104U: the “polymerase ribozyme fitness (log ratio)” value was -5.74.
With C22G A43U the figure was -3.99; with A24G G61U, -1.44.
With A26U C62U U78C G128C the figure was -6.34; with A26G A46C G52C, -4.5; with A24U G42U A43U C94G U112A U129A, -7.92.
Turning to C22G G61A C86U C123A, the “polymerase ribozyme fitness (log ratio)” value was -4.09.
In the case of C22U A105U, the “polymerase ribozyme fitness (log ratio)” value is -6.8.
With A24G G77A C115U the figure was -2.98; with G25A G71A C79G C115U, -7.59.
Take A26U A121U: the “polymerase ribozyme fitness (log ratio)” value was -0.422.
With A24U U116C G128U the figure was -6.51; with U21G U87A U133G G135U, -1.41.
Then C22G G45A, with -3.31; and C22A G52A, with -4.45; and A24G G52A, with -1.78.
For the variant A26G C28G C70G C85U C98U G107U A119G G122A, the “polymerase ribozyme fitness (log ratio)” value is -6.27.
With C22U G65U C72G C124U the figure was -5.7; with G25A C70A, -6.74; with U21G C31U U78C C85A U112G, -5.44.
For U21G G42A A121G, the “polymerase ribozyme fitness (log ratio)” value is -3.11.
Then G23U G69C G120A, with -5.9.
Regarding A26G G44U C56U G120U U130A, the “polymerase ribozyme fitness (log ratio)” value is -2.98.
U21G G61C U87A U133G G135U: the “polymerase ribozyme fitness (log ratio)” value was -3.09.
C22A G63U C101U: the “polymerase ribozyme fitness (log ratio)” value is -6.16.
Turning to A26G A29G G39U, the “polymerase ribozyme fitness (log ratio)” value is -3.81.
Then C22U A90U U112G, with -7.35; and C22G G48A, with -3.33; and A24G C53U, with -2.07.
On to A24G C49A G65C C70A G113U, for which the “polymerase ribozyme fitness (log ratio)” value was -6.47.
With A24C G48C U87A C97U C124A the figure was -7.52; with U21C C22A C101G G110A, -6.05; with C22A A26G G39A G63C C99A C115G, -4.89.
Then A26U C72U C123U, with -2.2; and C22G C72G C124A, with -2.22.
Then C22G G35U A121C U132C, with -4.9; and A24G U54A A68U G71A U112A, with -8.22.
For the variant A26C U112C, the “polymerase ribozyme fitness (log ratio)” value is -4.51.
As for C22G C49G, the “polymerase ribozyme fitness (log ratio)” value is -3.79.
As to G25U U33A A68U A111C G127C, the “polymerase ribozyme fitness (log ratio)” value is -6.82.
With A26G G45A G48U the figure was -3.98; with G23U U112G C114U C124G U125C, -7.12; with G25U C80A C88U A121C, -6.51.
As to A26G C73A A74U U78A, the “polymerase ribozyme fitness (log ratio)” value is -2.49.
For the variant A26G U130A, the “polymerase ribozyme fitness (log ratio)” value was -3.31.
Take A26G G45C A75U: the “polymerase ribozyme fitness (log ratio)” value is -4.25.
A26U G52A: the “polymerase ribozyme fitness (log ratio)” value was -4.18.
Then C22G A27U C88U A121U, with -2.51.
On to A24G C88U A95C C124A U133A, for which the “polymerase ribozyme fitness (log ratio)” value was -0.316.
With A26G U30A C104G C115A the figure was -5.53; with G25A A121C, -4.05.
Regarding A26G G45C G48U C88U, the “polymerase ribozyme fitness (log ratio)” value was -5.02.
With A24G G47C A90U the figure was -4.32; with C22G A84G, -4.29.
With U21G C56U A111G U112G the figure was -0.871; with C22U A74C C79U A121U, -2.29; with A26G C70U C94G A103G G117C, -7.12.
For the variant C22U A50C C124A, the “polymerase ribozyme fitness (log ratio)” value was -3.54.
With A26G G63C the figure was -1.65; with U21C U92G U96G A100C C124G, -5.43.
With G25U G69U C102U A121U the figure was -5.66.
For the variant A26U C94U, the “polymerase ribozyme fitness (log ratio)” value was -2.76.
Then C22G A29U G69C C89A G110U, with -5.19.
Then C22G G57C C89A A95G A111U A121U, with -4.42.

The values above are taken from the RNAGym collection of RNA variant scans (doi:10.1073/pnas.2313332121).
